“And” between values parts separate entries of the source, which are not always exact repeats. Equal entries are not always repeated.
How the values were obtained:
human CCR8 [1] = molecular target: T1, human CCR8 (human, UniProt P51685 1-355); assay: cell-based or functional assay
human CCR8 [2] = molecular target: T1, human CCR8; assay: flow cytometry, HUT78 cells (endogenous CCR8)
Method: (§1) The same staining protocol was applied on human CCR8 transfected CHO cell line versus wild type CHO cell line, cutaneous T cell lymphoma HUT78 cell line and human activated T cell model.
(§2) Briefly, 1·10⁵ cells per well in a 96 well plate were incubated with a dilution of unconjugated anti-CCR8 mAb at 10 μg/mL then diluted at 1/3.33, 4 dilution points (during 30 min at 4° C.). In human activated T cells model, prior to mAb incubation, cells were first incubated with 200 nM of hCCL1 (R&D Systems, Minneapolis, MN, USA) or buffer PBS (Invitrogen by Thermofisher Scientific, Illkirch-Graffenstaden, France) supplemented by 2% Fetal Bovine Serum (Invitrogen by Thermofisher Scientific, Illkirch-Graffenstaden, France) and 2 mM EDTA (Invitrogen by Thermofisher Scientific, Illkirch-Graffenstaden, France) during 1 hour at 4° C. To determine EC50 value, 8 concentrations of anti-CCR8 mAb were tested. Unbound antibodies were washed away with PBS (Invitrogen by Thermofisher Scientific, Illkirch-Graffenstaden, France) supplemented by 2% Fetal Bovine Serum (Invitrogen by Thermofisher Scientific, Illkirch-Graffenstaden, France) and 2 mM EDTA (Invitrogen by Thermofisher Scientific, Illkirch-Graffenstaden, France). Subsequently, cells are centrifuged (5 min at 400 g) and bound antibody is detected with F(ab′)₂-Goat anti-Mouse IgG (H+L) Cross-Adsorbed Secondary Antibody, Alexa Fluor 488 (dilution 1/500) (Invitrogen by Thermofisher Scientific, Illkirch-Graffenstaden, France) or with F(ab′)₂-Goat anti-Human IgG Fc Secondary Antibody, PE (Invitrogen by Thermofisher Scientific, Illkirch-Graffenstaden, France) (dilution 1/1000) at 4° C. for 30 min. Detection reagent is washed away and cells are centrifuged (5 min at 400 g) and resuspended in 30 μL PBS. Bound detection antibody is quantified on a MacsQuant16 (Miltenyi, Gladbach, Germany) (B1 or B2 channel, 5000 events per acquisition). During the experiment, the respective isotype mAb controls (mouse IgG1, mouse IgG2a, mouse IgG2b, mouse IgG3 or human IgG1) (Biolegend, Amsterdam, The Netherlands) are included to exclude any unspecific binding events.
EC50 values were determined via nonlinear fit “log(agonist)vs.response−Variable slope (four parameters)” function of Graphpad prism. EC50 values were not constantly determined in the same experiments.

[3] = molecular target: pm8, modified CCR8 related peptide (human, sulfated tyrosines at Y15, Y16 and Y17); assay: ELISA on coated CCR8 peptide (500 ng/mL), OD [cont.]
Method: (§3) The specific binding properties of antibodies were evaluated by ELISA with coated CCR8 related peptides (500 ng/mL) in carbonate/bicarbonate buffer. Different peptides were used as described in Table 1 (see Example 1). Each anti-CCR8 mAb was tested at 1 μg/mL then diluted at 1/10. After an incubation at room temperature during 90 min, unbound mAbs were removed by washings. […] After washings, 3,3′,5,5′-tetramethylbenzidine (TMB) (Interchim, Montlugon, France) was added for 15 min. Then the optical density (OD) was determined by using a multiplate reader (Tecan, Lyon, France) and correlated with mAb reactivity on the panel of coated peptides.

[4] = molecular target: pm2, modified CCR8 related peptide (human, sulfated tyrosine at Y16); assay: as above
Method: as §3

[5] = molecular target: pm1, modified CCR8 related peptide (human, sulfated tyrosine at Y15); assay: as above
Method: as §3

[6] = molecular target: pm4, modified CCR8 related peptide (human, sulfated tyrosines at Y15 and Y16); assay: as above
Method: as §3

[7] = molecular target: T2, pwt1, unmodified CCR8 related peptide (human, none (non-sulfated Y15, Y16, Y17)); assay: as above
T2 construct: First 34 amino acids of human CCR8, synthetic; also called unmodified peptide
Method: as §3

[8] = molecular target: pm5, modified CCR8 related peptide (human, sulfated tyrosines at Y15 and Y17); assay: as above
Method: as §3

[9] = molecular target: pm3, modified CCR8 related peptide (human, sulfated tyrosine at Y17); assay: as above
Method: as §3

[10] = molecular target: pm6, modified CCR8 related peptide (human, sulfated tyrosines at Y16 and Y17); assay: as above
Method: as §3

hCCR8 SNAP-tag [11] = molecular target: T3, hCCR8 SNAP-tag (human, UniProt P51685 1-355, SNAP-tag labelled with Lumi4-Terbium); assay: HTRF Tag-lite, inhibition of hCCL1-AF647 binding to SNAP-tag hCCR8 on HEK-293
T3 construct: also called human CCR8 engineered with a SNAP-tag at the N-terminus; not shown: SNAP-tag at the N-terminus
Method: The inhibition of CCL1 binding to hCCR8 was evaluated with the Tag-Lite® technology from Cisbio (Revvity). Human CCR8 is engineered with a SNAP-tag at the N-terminus of the GPCR. hCCR8 SNAP-tag is transiently transfected on HEK-293 cell line using FuGene® (Promega, Madison, WI, USA). 48 hours after transfection, cells are labeled with the substrate Lumi4-Terbium® (Cisbio, Codolet, France) which covalently reacts with the SNAP-tag, for 1 h at 37° C. […] The Kd is previously obtained in a saturation binding assay on the same cells. […] The plate is next incubated at 21° C. for 2 h. Detection of HTRF signal is performed on the multiplate reader EnVision (PerkinElmer, Waltham, MA, USA). The HTRF (665/620) ratio is calculated by EnVision software, the data exported are considered as the total binding. The specific binding is calculated then by subtracting the non-specific signal from the total binding. The Ki and IC₅₀are calculated using the “One site—Fit Ki” and “One site—FitlogIC50” from GraphPad Prism 9 (Graphpad Software, San Diego, CA, USA), respectively.

human CCR8 [12] = molecular target: T1, human CCR8; assay: cell-based or functional assay; remark: listed apart in the source
hCCR8 SNAP-tag [13] = molecular target: T3, hCCR8 SNAP-tag; assay: cell-based or functional assay
human CCR8 [14] = molecular target: T1, human CCR8; assay: flow cytometry, hCCR8 transfected CHOK1 cells
Method: as §1, §2

human CCR8 [15] = molecular target: T1, human CCR8; assay: flow cytometry, inhibition of hCCL1-AF647 binding to hCCR8 CHO cells
Method: The hCCR8 transfected CHO cell line was dispatched at a density of 1·10⁵ per well in a 96-well plate. Cells were incubated for 30 min at 4° C. with or without anti-CCR8 mAb tested at 10 μg/mL then diluted at 1/3. Unbound antibodies were washed away with PBS (Gibco, Villebon-sur-Yvette, France) supplemented by 2% Fetal Bovine Serum (Invitrogen by Thermofisher Scientific, Illkirch-Graffenstaden, France) and 2 mM EDTA. […] After washing unbound ligands, CCL1 bound detection is quantified on a MacsQuant16 (Miltenyi, Gladbach, Germany) (R1 channel, 5 000 events per acquisition).
For IC₅₀ determination, a concentration response curve is performed using 8 concentrations of mAb. Curves are fitted and IC₅₀ of CCL1 binding blocking activity is calculated using the sigmoidal dose-response (variable slope) model on GraphPad Prism 9 (GraphPad Software, San Diego, CA, USA).

Chain of pm8, modified CCR8 related peptide (human, sulfated tyrosines at Y15, Y16 and Y17) (peptide, as listed by the source): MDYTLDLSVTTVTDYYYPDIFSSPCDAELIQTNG
Chain of pm3, modified CCR8 related peptide (human, sulfated tyrosine at Y17) (peptide, as listed by the source): as above
Chain of pm4, modified CCR8 related peptide (human, sulfated tyrosines at Y15 and Y16) (peptide, as listed by the source): as above
Chain of pm6, modified CCR8 related peptide (human, sulfated tyrosines at Y16 and Y17) (peptide, as listed by the source): as above
Chain of pm2, modified CCR8 related peptide (human, sulfated tyrosine at Y16) (peptide, as listed by the source): as above
Chain of pm5, modified CCR8 related peptide (human, sulfated tyrosines at Y15 and Y17) (peptide, as listed by the source): as above
T2 sequence (peptide, as listed by the source): as above
Chain of pm1, modified CCR8 related peptide (human, sulfated tyrosine at Y15) (peptide, as listed by the source): as above

B1: humanized anti-CCR8 mAb 2-12 (antibody, human IgG1, kappa)
heavy: not shown
light: DIVMTQAAPSLSVTPGESASISCTSSKSLLHSNGNTYLYWFLQKPGQSPQLLIYRMSNLASGVPDRFSGSGSGTAFTLKISRVEAEDVGVYYCMQHREYPFTFGSGTKLEIKRTVAAPSVFIFPPSDEQLKSGTASVVCLLNNFYPREAKVQWKVDNALQSGNSQESVTEQDSKDSTYSLSSTLTLSKADYEKHKVYACEVTHQGLSSPVTKSFNRGEC
notes: Humanized, human IgG1 / kappa, produced in CHO
Question: For B1, which “hCCL1 (100 nM) residual response in %, Protocol #2, mAb 0.08 µg/mL ([…] nM)” value (human CCR8 [1]) is on record?
Answer: Its value is 62%.

Question: What about the “hCCL1 (100 nM) residual response in %, Protocol #2, mAb 0.4 µg/mL (2.67 nM)” value (human CCR8 [1]) of the same binder?
Answer: The value was 38%.

Question: And the “hCCL1 (100 nM) residual response in %, Protocol #2, mAb 10 µg/mL (66.7 nM)” value (human CCR8 [1])?
Answer: The value was 30%.

Question: What about the “hCCL1 (100 nM) residual response in %, Protocol #3, mAb 0.05 µg/mL (0.33 nM)” value (human CCR8 [1]) of the same binder?
Answer: Its value is 94%.

Question: And the “hCCL1 (100 nM) residual response in %, Protocol #3, mAb 0.5 µg/mL (3.33 nM)” value (human CCR8 [1])?
Answer: Its value is 63%.

Question: And the “hCCL1 (100 nM) residual response in %, Protocol #3, mAb 5 µg/mL (33.3 nM)” value (human CCR8 [1])?
Answer: The value was 39%.

Question: And the “% of labelled cells” value (human CCR8 [2])?
Answer: Its value is 23%.

Question: Does B1 bind [3]?
Answer: Result: binds

Question: Does B1 bind [4]?
Answer: Result: binds

Question: Does B1 bind [5]?
Answer: Result: binds

Question: Does B1 bind [6]?
Answer: Result: binds

Question: Does B1 bind [7]?
Answer: Result: binds

Question: Does B1 bind [8]?
Answer: Result: binds

Question: Does B1 bind [9]?
Answer: Result: binds

Question: Does B1 bind [10]?
Answer: Result: binds

Question: And the IC50 (hCCR8 SNAP-tag [11])?
Answer: Its IC50 is 0.09 µg/mL.

Question: And the Ki (hCCR8 SNAP-tag [11])?
Answer: Its Ki is 0.05 µg/mL.

Question: And the “IC50, CCL1 induced hCCR8 Gi2 signaling (BRET, HEK-293)” value (human CCR8 [12])?
Answer: Its value is 0.029 µg/mL and 0.194 nM.

B2: Ref #1 (TPP-21360 of WO 2021/260210) (antibody, human IgG1, V domains shown)
VH: EVQLLESGGGLVQPGGSLRLSCAASGFTFSSYGMHWVRQAPGKGLEWVSAINWNGGSTGYADSVKGRFTISRDNSKNTLYLQMNSLRAEDTAVYYCARGHHSGYDGRFFDYWGQGTLVTVSS
VL: QSVLTQPPSVSGAPGQRVTISCTGSSSNIGAGYNVHWYQQLPGTAPKLLIYTNNRRPSGVPDRFSGSKSGTSASLAISGLRSEDEADYYCAAWDASLSGWVFGGGTKLTVL
notes: Benchmark; variable regions cloned into vectors encoding heavy and light chains of human IgG1, produced in CHO
Question: For B2, which “% of internalization at 1 µg/ml (CCL1 at 300 nM = 100%), HTRF” value (hCCR8 SNAP-tag [13]) is on record?
Answer: Its value is 126%.

Question: And the “% of internalization at 10 µg/ml (CCL1 at 300 nM = 100%), HTRF” value (hCCR8 SNAP-tag [13])?
Answer: The value was 111%.

Question: What about the “% positive cells” value (human CCR8 [14]) of the same binder?
Answer: Its value is 75.1%.

Question: And the IC50 (human CCR8 [15])?
Answer: The IC50 was 0.65 µg/mL.

Question: And the IC50 (hCCR8 SNAP-tag [11])?
Answer: Its IC50 is 0.45 µg/mL.

Question: And the Ki (hCCR8 SNAP-tag [11])?
Answer: The Ki was 0.23 µg/mL.

Question: What about the “IC50, CCL1 induced hCCR8 Gi2 signaling (BRET, HEK-293)” value (human CCR8 [12]) of the same binder?
Answer: Its value is 0.101 µg/mL and 0.675 nM.

From patent US20260167731A1 (DOMAIN THERAPEUTICS, published 2026)
